Reference: US7063946B2, “Methods, reagents, kits and apparatus for protein function analysis” (Meso Scale Technologies, LLC., priority 2001, dated 2006)

B1: 4498209: IMAGE clone protein: EPHB1, EphB1 (protein, UniProt P54762 18-984, looked up)
Ephrin type-B receptor 1: MEETLMDTRTATAELGWTANPASGWEEVSGYDENLNTIRTYQVCNVFEPNQNNWLLTTFINRRGAHRIYTEMRFTVRDCSSLPNVPGSCKETFNLYYYETDSVIATKKSAFWSEAPYLKVDTIAADESFSQVDFGGRLMKVNTEVRSFGPLTRNGFYLAFQDYGACMSLLSVRVFFKKCPSIVQNFAVFPETMTGAESTSLVIARGTCIPNAEEVDVPIKLYCNGDGEWMVPIGRCTCKPGYEPENSVACKACPAGTFKASQEAEGCSHCPSNSRSPAEASPICTCRTGYYRADFDPPEVACTSVPSGPRNVISIVNETSIILEWHPPRETGGRDDVTYNIICKKCRADRRSCSRCDDNVEFVPRQLGLTECRVSISSLWAHTPYTFDIQAINGVSSKSPFPPQHVSVNITTNQAAPSTVPIMHQVSATMRSITLSWPQPEQPNGIILDYEIRYYEKEHNEFNSSMARSQTNTARIDGLRPGMVYVVQVRARTVAGYGKFSGKMCFQTLTDDDYKSELREQLPLIAGSAAAGVVFVVSLVAISIVCSRKRAYSKEAVYSDKLQHYSTGRGSPGMKIYIDPFTYEDPNEAVREFAKEIDVSFVKIEEVIGAGEFGEVYKGRLKLPGKREIYVAIKTLKAGYSEKQRRDFLSEASIMGQFDHPNIIRLEGVVTKSRPVMIITEFMENGALDSFLRQNDGQFTVIQLVGMLRGIAAGMKYLAEMNYVHRDLAARNILVNSNLVCKVSDFGLSRYLQDDTSDPTYTSSLGGKIPVRWTAPEAIAYRKFTSASDVWSYGIVMWEVMSFGERPYWDMSNQDVINAIEQDYRLPPPMDCPAALHQLMLDCWQKDRNSRPRFAEIVNTLDKMIRNPASLKTVATITAVPSQPLLDRSIPDFTAFTTVDDWLSAIKMVQYRDSFLTAGFTSLQLVTQMTSEDLLRIGITLAGHQKKILNSIHSMRVQISQSPTAMA
B2: 4778819: IMAGE clone protein: Hck, hemopoietic cell kinase (protein, UniProt P08103 2-524, looked up)
Tyrosine-protein kinase HCK: GGRSSCEDPGCPRSEGRAPRMGCVKSRFLRDGSKASKTEPSANQKGPVYVPDPTSSSKLGPNNSNSMPPGFVEGSEDTIVVALYDYEAIHREDLSFQKGDQMVVLEEAGEWWKARSLATKKEGYIPSNYVARVNSLETEEWFFKGISRKDAERHLLAPGNMLGSFMIRDSETTKGSYSLSVRDFDPQHGDTVKHYKIRTLDSGGFYISPRSTFSSLQELVLHYKKGKDGLCQKLSVPCVSPKPQKPWEKDAWEIPRESLQMEKKLGAGQFGEVWMATYNKHTKVAVKTMKPGSMSVEAFLAEANLMKSLQHDKLVKLHAVVSQEPIFIVTEFMAKGSLLDFLKSEEGSKQPLPKLIDFSAQISEGMAFIEQRNYIHRDLRAANILVSASLVCKIADFGLARIIEDNEYTAREGAKFPIKWTAPEAINFGSFTIKSDVWSFGILLMEIVTYGRIPYPGMSNPEVIRALEHGYRMPRPDNCPEELYNIMIRCWKNRPEERPTFEYIQSVLDDFYTATESQYQQQP
B3: 4537393: IMAGE clone protein: TTK protein kinase (protein, UniProt P33981 1-857, looked up)
Dual specificity protein …: MESEDLSGRELTIDSIMNKVRDIKNKFKNEDLTDELSLNKISADTTDNSGTVNQIMMMANNPEDWLSLLLKLEKNSVPLSDALLNKLIGRYSQAIEALPPDKYGQNESFARIQVRFAELKAIQEPDDARDYFQMARANCKKFAFVHISFAQFELSQGNVKKSKQLLQKAVERGAVPLEMLEIALRNLNLQKKQLLSEEEKKNLSASTVLTAQESFSGSLGHLQNRNNSCDSRGQTTKARFLYGENMPPQDAEIGYRNSLRQTNKTKQSCPFGRVPVNLLNSPDCDVKTDDSVVPCFMKRQTSRSECRDLVVPGSKPSGNDSCELRNLKSVQNSHFKEPLVSDEKSSELIITDSITLKNKTESSLLAKLEETKEYQEPEVPESNQKQWQSKRKSECINQNPAASSNHWQIPELARKVNTEQKHTTFEQPVFSVSKQSPPISTSKWFDPKSICKTPSSNTLDDYMSCFRTPVVKNDFPPACQLSTPYGQPACFQQQQHQILATPLQNLQVLASSSANECISVKGRIYSILKQIGSGGSSKVFQVLNEKKQIYAIKYVNLEEADNQTLDSYRNEIAYLNKLQQHSDKIIRLYDYEITDQYIYMVMECGNIDLNSWLKKKKSIDPWERKSYWKNMLEAVHTIHQHGIVHSDLKPANFLIVDGMLKLIDFGIANQMQPDTTSVVKDSQVGTVNYMPPEAIKDMSSSRENGKSKSKISPKSDVWSLGCILYYMTYGKTPFQQIINQISKLHAIIDPNHEIEFPDIPEKDLQDVLKCCLKRDPKQRISIPELLAHPYVQIQTHPVNQMAKGTTEEMKYVLGQLVGLNSPNSILKAAKTLYEHYSGGESHNSSSSKTFEKKRGKK
B4: 4384416: IMAGE clone protein: BTK, Bruton agammaglobulinemia tyrosine kinase (protein, UniProt Q06187 2-659, looked up)
Tyrosine-protein kinase BTK: AAVILESIFLKRSQQKKKTSPLNFKKRLFLLTVHKLSYYEYDFERGRRGSKKGSIDVEKITCVETVVPEKNPPPERQIPRRGEESSEMEQISIIERFPYPFQVVYDEGPLYVFSPTEELRKRWIHQLKNVIRYNSDLVQKYHPCFWIDGQYLCCSQTAKNAMGCQILENRNGSLKPGSSHRKTKKPLPPTPEEDQILKKPLPPEPAAAPVSTSELKKVVALYDYMPMNANDLQLRKGDEYFILEESNLPWWRARDKNGQEGYIPSNYVTEAEDSIEMYEWYSKHMTRSQAEQLLKQEGKEGGFIVRDSSKAGKYTVSVFAKSTGDPQGVIRHYVVCSTPQSQYYLAEKHLFSTIPELINYHQHNSAGLISRLKYPVSQQNKNAPSTAGLGYGSWEIDPKDLTFLKELGTGQFGVVKYGKWRGQYDVAIKMIKEGSMSEDEFIEEAKVMMNLSHEKLVQLYGVCTKQRPIFIITEYMANGCLLNYLREMRHRFQTQQLLEMCKDVCEAMEYLESKQFLHRDLAARNCLVNDQGVVKVSDFGLSRYVLDDEYTSSVGSKFPVRWSPPEVLMYSKFSSKSDIWAFGVLMWEIYSLGKMPYERFTNSETAEHIAQGLRLYRPHLASEKVYTIMYSCWHEKADERPTFKILLSNILDVMDEES
B5: 4398416: IMAGE clone protein: Csk, c-src tyrosine kinase (protein, UniProt P41241 2-450, looked up)
Tyrosine-protein kinase CSK: SAIQAAWPSGTECIAKYNFHGTAEQDLPFCKGDVLTIVAVTKDPNWYKAKNKVGREGIIPANYVQKREGVKAGTKLSLMPWFHGKITREQAERLLYPPETGLFLVRESTNYPGDYTLCVSCEGKVEHYRIMYHASKLSIDEEVYFENLMQLVEHYTTDADGLCTRLIKPKVMEGTVAAQDEFYRSGWALNMKELKLLQTIGKGEFGDVMLGDYRGNKVAVKCIKNDATAQAFLAEASVMTQLRHSNLVQLLGVIVEEKGGLYIVTEYMAKGSLVDYLRSRGRSVLGGDCLLKFSLDVCEAMEYLEGNNFVHRDLAARNVLVSEDNVAKVSDFGLTKEASSTQDTGKLPVKWTAPEALREKKFSTKSDVWSFGILLWEIYSFGRVPYPRIPLKDVVPRVEKGYKMDAPDGCPPAVYEVMKNCWHLDAATRPTFLQLREQLEHIKTHELHL

system: autophosphorylation (phosphotyrosine); experiment: In vitro kinase library screen: autophosphorylation; format: biochemical; settings: not given
Description: Proteins were produced from DNA plasmids of Mock Luciferase, Promega, tyrosine kinase clone Spleen Tyrosine kinase (SYK, IMAGE ID# 3870426) and Eph receptor-A7 (EphA7, IMAGE ID# 3991628) (Incyte Genomics, CA) and immobilized on streptavidin or avidin coated NPT-IPR plates as described in the Example 7. To promote autophosphorylation in these immobilized and purified proteins, Mn++ ions were added in a 50 μl reaction containing 5 mM MgCl2, 5 mM MnCl2, 100 μM ATP, 25 mM Tris-HCl buffer pH 7.4, 0.05 mM Na3VO4, 0.004% TritonX-100, 2 mM DTT and EDTA-free protease inhibitor (Roche Molecular Biochemicals). This mixture was incubated with shaking at room temperature overnight to allow autophosphorylation. Following this incubation, wells were washed 2 times with TT-buffer and 2 times with water. Following this step, 50 ng Sulfo-TAG labeled anti-phosphotyrosine in buffer containing 25 mM Tris-HCl buffer pH 7.4, 5 mM MgCl2, 0.05 mM Na3VO4, 0.004% TritonX-100, 2 mM DTT and 0.05% IgG in a final volume of 50 μl was added followed by incubation at room temperature for 45 min. The unbound reagents were removed by one time washing with water, and the TAG label was detected in presence of 150 μl IPR assay buffer (0.4 mM Gly—Gly buffer, pH 7.8, 1 mM EDTA, 0.1 M TPA). The ECL signals were measured using an imaging plate reader.
(§1) Proteins were produced in an in vitro transcription and translation reaction as described in the Materials and Methods. […] The reaction was stopped by mixing with BB2 buffer. Biotinylated proteins from 50 μl of the mixture (representing 0.5 μl to 5 μl of TnT reaction) were immobilized onto streptavidin or avidin coated NPT-IPR plates by shaking at room temperature for 45 min. The activity of the immobilized protein towards pEY or autophosphorylation was further assayed by the methods described in examples 7 and 8.

Row | Molecule | ECL signal
1 | B1 | 3,138
2 | B2 | 1,198,625
3 | B3 | 50,479
4 | B4 | 1,503,772
5 | B5 | 349,847

system: pEY; experiment: In vitro kinase library screen: activity towards pEY; format: biochemical; settings: 5 ul of expressed protein
Description: Proteins were produced in an in vitro transcription and translation reaction. […] The unbound components of the reaction containing endogenous kinases were removed by three washes with TT-buffer (25 mM Tris-HCl buffer pH 7.4 and 0.004% Triton), two five minutes washings with high-salt wash buffer (25 mM Tris-HCl buffer pH 7.4, 0.004% Triton, 1M NaCl and 5 mM DTT) and 3 more washes with TT-buffer. To these immobilized and purified proteins a tyrosine kinase substrate, 5 nM pEY (poly Glu-Tyr, Sigma, MO), was added in a 50 μl reaction solution containing 5 mM MgCl2, 5 mM MnCl2, 100 μM ATP, 25 mM Tris-HCl buffer pH 7.4, 0.05 mM Na3VO4, 0.004% TritonX-100, 2 mM DTT and EDTA-free protease inhibitor (Roche Molecular Biochemicals). This mixture was incubated with shaking at room temperature overnight to allow phosphorylation of the pEY substrate by the immobilized kinases. Following this incubation, 45 μl of this mixture was transferred to a streptavidin or avidin-coated NPT IPR plate coated with biotinylated anti-phosphotyrosine antibody (PY20, Zymed labs, CA) followed by incubation for 30 minutes at room temperature to allow the binding of the phosphorylated pEY substrate to the PY20 coated NPT plate. Following this binding step, 50 ng Sulfo-TAG labeled anti-phosphotyrosine in buffer containing 25 mM Tris-HCl buffer pH 7.4, 5 mM MgCl2, 0.05 mM Na3VO4, 0.004% TritonX-100, 2 mM DTT and 0.05% IgG was added followed by incubation at room temperature for 30 mm. The unbound reagents were removed by one time washing with water, and the TAG label was detected in presence of 150 μl IPR assay buffer (0.4 mM Gly-Gly buffer, pH 7.8, 1 mM EDTA, 0.1 M TPA). The ECL signals were measured using an imaging plate reader.
as §1

Row | Molecule | HTS signal
6 | B1 | 853
7 | B2 | 958,415
8 | B3 | 1,711
9 | B4 | 793,874
10 | B5 | 683,039
